From PMC9839713, “Arabidopsis DXO1 activates RNMT1 to methylate the mRNA guanosine cap” (Nature Communications, 2023)

Target: T1, His-DXO1 (Arabidopsis thaliana, UniProt Q8RY73 1-544)
T1 construct: also called His-tagged DXO1; source: E. coli BL21 Rosetta, purified (Ni-NTA); not shown: His6, N-terminal, kept
Assay: pull-down; GST pull-down: 2 ug GST-RNMT1 with His-DXO1 or His-cDXO1 on GST agarose beads, 20 mM Tris-HCl pH 7.5, 100 mM NaCl, 1 mM DTT, 1 mM EDTA, 1 h; in the presence of RNase A; eluted with 10 mM GSH; blots with anti-His and anti-GST
Conditions: both partners purified

T1 sequence (Q8RY73 whole entry): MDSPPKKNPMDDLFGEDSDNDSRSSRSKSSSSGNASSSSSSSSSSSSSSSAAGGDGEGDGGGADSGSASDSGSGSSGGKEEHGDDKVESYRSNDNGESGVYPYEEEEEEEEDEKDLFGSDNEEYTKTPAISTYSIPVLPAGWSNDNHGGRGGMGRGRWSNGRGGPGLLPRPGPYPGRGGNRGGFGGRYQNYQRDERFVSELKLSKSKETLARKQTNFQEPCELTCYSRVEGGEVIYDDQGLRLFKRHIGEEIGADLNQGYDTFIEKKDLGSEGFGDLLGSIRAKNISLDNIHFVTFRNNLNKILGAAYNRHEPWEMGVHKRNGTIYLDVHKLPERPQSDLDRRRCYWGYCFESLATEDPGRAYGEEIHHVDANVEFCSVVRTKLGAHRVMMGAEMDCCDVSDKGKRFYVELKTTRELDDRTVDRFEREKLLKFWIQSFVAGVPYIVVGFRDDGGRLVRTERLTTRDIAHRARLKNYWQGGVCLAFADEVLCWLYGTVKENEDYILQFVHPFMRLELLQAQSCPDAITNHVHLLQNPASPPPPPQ

- binding result: binds
B1: GST-RNMT1 (natural protein, Arabidopsis thaliana, UniProt Q9LHQ7 1-370, looked up)
chain: MKRGFSDSPSSSAPPPSSRFKSNPEGDSQFLEDETTKNFARKVADHYSRRTNQTLEEREASPIIHLKKLNNWIKSVLIQLYARPDDAVLDLACGKGGDLIKWDKARIGYYVGIDIAEGSIEDCRTRYNGDADHHQRRKKFSFPSRLLCGDCFEVELDKILEEDAPFDICSCQFAMHYSWTTEARARRALANVSALLRPGGVFIGTMPDANVIIKKLREAEGLEIGNSVYWIRFGEEYSQKKFKSSSPFGIEYVFHLEDAVDCPEWIVPFNVFKSLAEEYDLELVFVKNSHEFVHEYMKKPEFVELMRRLGALGDGSNDQSTLSADEWEAAYLYLSFVLRKRGESDGARRSGRRKNGKMNLSKDDVLYIDS
notes: The methods name a 'GST-DXO1' fusion in pGEX-4T-1 and RNMT1 in pET28a, while results, legend and pull-down methods use GST-RNMT1; In the functional rows the RNMT1 was the recombinant protein from pET28a (6X His); also called GST-tagged RNMT1; source: E. coli BL21 Rosetta, purified (GST agarose beads); not shown: GST, N-terminal, kept
